Earlier results on 1 substance are cited in publication PMC11346460.

Usually pKd stands for the negative decadic logarithm of the Kd, by convention in mol/L.

pKd: −log10 of the molar value.

This data set has as its target RIG-I (Homo sapiens) (UniProt O95786).
Chain of UniProt O95786 (O95786 whole entry): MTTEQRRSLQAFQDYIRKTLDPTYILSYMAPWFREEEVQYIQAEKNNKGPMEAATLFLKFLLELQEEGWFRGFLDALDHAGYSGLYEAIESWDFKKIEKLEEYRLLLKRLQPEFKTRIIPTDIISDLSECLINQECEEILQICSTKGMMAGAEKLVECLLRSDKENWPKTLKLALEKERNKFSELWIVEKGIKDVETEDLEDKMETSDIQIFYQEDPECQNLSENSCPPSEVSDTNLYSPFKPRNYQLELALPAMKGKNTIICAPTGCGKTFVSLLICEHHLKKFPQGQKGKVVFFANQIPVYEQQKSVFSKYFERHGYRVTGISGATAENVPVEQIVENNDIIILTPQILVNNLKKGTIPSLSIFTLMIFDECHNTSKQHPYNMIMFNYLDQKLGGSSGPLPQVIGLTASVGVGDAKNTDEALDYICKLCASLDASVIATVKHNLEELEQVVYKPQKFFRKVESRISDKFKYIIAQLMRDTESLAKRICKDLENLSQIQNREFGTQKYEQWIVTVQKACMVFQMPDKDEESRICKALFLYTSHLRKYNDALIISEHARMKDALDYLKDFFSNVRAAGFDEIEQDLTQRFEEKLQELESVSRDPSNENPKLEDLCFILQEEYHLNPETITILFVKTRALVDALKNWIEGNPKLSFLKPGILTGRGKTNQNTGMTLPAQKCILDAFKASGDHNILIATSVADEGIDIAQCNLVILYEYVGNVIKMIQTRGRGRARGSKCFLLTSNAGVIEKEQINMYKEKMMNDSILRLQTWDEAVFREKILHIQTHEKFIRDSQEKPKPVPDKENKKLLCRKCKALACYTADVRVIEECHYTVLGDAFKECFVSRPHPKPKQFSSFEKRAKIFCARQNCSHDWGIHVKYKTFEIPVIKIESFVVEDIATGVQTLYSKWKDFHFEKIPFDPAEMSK

RIPLET (from UniProt Q8IUD6): the pKd was 8.18.
